Assay results as given in the NTF2 design screens of Basanta et al. (2020).

Experiment: protease stability score; higher = more stable; yeast display proteolysis, trypsin and chymotrypsin;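 further: relative to predicted unfolded state with 0 unfolded-like and 1 meaning tenfold more protease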

| Sequence | protease stability score |
| --- | --- |
| SEEDHELRIASEIMIKTTRTGDERLIKELFDPNTQIDFDGQELHGWKFVRRLDEEMRMHRSETKSYERYGDKIVIDIEVDVEFNGVRTRIRVTIIARKVNGRWLNEVMIIH | 1.14 |
| SEDEQLRYELAELFFHLISTGDEETIRHYFDPHVLVMIFVNGRNIENHGWEEMTRSLRELRIKDSRLKRVDVYGDYARMDIRVDGEINGVRRDTEVEIRIKWVNGRWKSVNIHIH | 2.14 |
| DEDREQAEEVIRSITEAMQTGDEHLWERMIDPNVRVIIDGRTYHGRLAWDLFRERYDVVHSSDSRIRHLRTYNGRVEVITQLRLDVEINGQRFETSMETHLIVLKFNGKWTVRRMEIH | 1.67 |
| SEEEEQLIRMADVFLHLFLTGDEDTLRSLFDPNAKLDINGVHSVGRENVKKAKEEWENKLGVNHHRLHEIRVVNGRTDLDGEVEWDGKRQRVRLVLVLINGRIRHEKIIFE | 1.03 |
| SEDREFAEKMLRIVSDLENTGDEEKARHLLDPNVRSVIDGQDLIGWHLRRHWLHELRIKSHRVDVHDIHVYNGQIEFNVREDGNIVVNGVEIRIELRTKMTFRKFDGQWYVKSIEIK | 1.45 |
| SEEEEEVVRIWKLLLELEKTGNEENIARLADPHVRTDINGQESHGREHLAKLVRHLFHEIRIKDFKIRRLELQGEKLIVDGELHGNYDGQHEVVDTEIHIYVVNGKLKSITVRHH | 1.47 |
| SEDHEMVKKLIHDLMRARSTGDEEEFYKLLDPHVRSDINGQETHGREEFVHWFIRHHHEFGFDHVERVHLHHIELIGDKIHVDLIVHITVGEYTIVTHEHLVIWKIDGRWVLRSMDLH | 1.43 |
| DEHEELLEHIIRLWLKYIHTGDFRNWMKYADPNAKWRTENHEHHGREEIARDLHEFNKKLGMEFRIDLRHFEIQGDKVRMHTEYILHIGDYTERRETEVTVIIVDGKIKSIRLLVR | 1.67 |
| DEEEEKLRFAVELFEETFRTGDEKLKEHLADPDVRVHYGDFEYHGRETLERWTRFVKGVKVELKSIDIINGVLDLDGTLHFNGRTFDTRYLALKINGRWILKRVIIH | 1.49 |
| DEKREESERALNHLFKSMLTGDEEDVRKLADPHAKFIINGRSDIGRESVSHHWHRLWRELGVKHLDVRSFRVYDGRVDSKTRVEIGDKEHEMEVYIVKVNGRWHIEELEFR | -0.12 |
| REEERLTRHFAHRLFHSLMTGDEDELTELADPNARSIVDGRTVHGRETMSRIIHHKVRELGVDHNTIEHIEFQGNYVHVHMRIEVGDKTYTSIIHIEKVDGRWLVRSVNLL | 0.491 |
| DEEDMDEVEKAIRKNDPEKMRDLADENAKASVGDNQFHGRDNVENFMKHLTDHADHVQVDSVEKHNGRVVVNAQLDINGEQIQIVIRIDVHNGKIKRFSIEVRDEEAHHFMREMVS | 0.686 |
| SEDERRFREALRIWFQLVRTGDEEELKHFFDPNVRIHIGDKTFHGMELVLRQIVEEAREIRVRSVTIHELDRQGEWIHMDVRIDEEINGRRIHHSVEIIALKINGKWFFHSIIIR | 1.4 |
| SEEEELAERMIRIWQKDIRTGNEESLSKFIDPNVRNEYGDKTHHGRHVFADVIRRILDELGVTNVHSRLTRMEIQGDKVRVDVQINIDGQEYRIEVHFEKVNGRWNVTSWNIR | 0.698 |
| DELEKDLKDAFRILIEEVKTGDFKSMRRNMDPDARIDIGDKHSVGREEAIHLMEIFYKEWRFEHIDLHDFTLIGNKLELDMRVHGNVDGVRTIVIRRVISEKIDGRWLIRTESIE | 0.494 |
| DERDEHSRHVAELWLQSMETGDWEHDRRLLDPNMKFEAPNHSLHGRDSYVETMRKIKNLVIHDTKIEHYEVQGDKAHVQMRIDVIVGDKRTWVEVRVEIVVVDGVLHSLRIEIE | 0.777 |
| SEDHKQAEEFMHRVAHNVLTGDEEKLDELIDPDARLEIGDKEHHGREIFIEFWRQLRVRDIKIRHWEIIGDKIFIRGEMNGIVDGRTRIFDIIVVMVKINGKWTLKRVEIK | 1.5 |
| SEDERDAKFATDLVLHLLRTGDEEKLLQLLDPNVRVEQGNKDWHGREDWHDFMEIMGIDHMTIHHVELRVVNGRVESHVDIRLLVNGRDDDVQLVLFMKKVDGRWRVTSLRFIYR | 1.74 |
| DEHEHFMEYAMKRMLHSWLTGDEHDWHELADPNVKLHIGEYNFIGREEYYRHLHRHLHEAGFKHIKIDHIHVEIQGEKLIFRMDTTIHFNGRKLRVEVIVILFKVNGRWSLHTDEVHIE | 0.931 |
| SEDDRDAEKMSKDWIHLMLTGDEDHLRELLDPNVRMEQGDKEFIGRELLVEVFSRTVKHLGIKHIQLEESRTNVQGEKVIVILIMDYRAENRRVEFHIHLIVDKVNGRWLVQSVRFRFK | 1.25 |
| SDLDHRLRKLAEDLSRILETGNWRLMHKLADPNVKEDINGVEFHGRELLVKWLEDLLKELRVHFRVDHYDIQGNFLRVEITNNVFINGVQKVRDERLEVNMFDGKEKENRVRVE | 0.717 |
| TDERDRYKHFLHLFRHLIKTGDEDVLANNADPHVKFHIHIGDKEREHHGMESMVKIFKEWRIHHLHIESFDVQGDKLIALVHVDGIINGRHHSTTVNIILTFVNGREKEVNIHLT | 1.74 |
| SEVEEEMTRIADILLRVTKTGDWEEMRDLIDPDARMIIDIDGREHINVGREDLARSLKRLRDHLGVKVWDYHHISVIGDKIHIETQQRFNGQDVTTRNEWTVINGKLKEMRLIIH | 2.02 |
| DERKKDAERMVEWIMHLWETGNFERLFRLADPHVRFILHQGDKELHFHGRELVEEAIFRLLLHIRIDDRIDRRVHIFPNRLDIHGQVHVHVGDKRHDLIIHIEVFIIDGKLKRIEIEIE | 1.49 |
| SEDKKTLEHYFRELMHVLQTGDETEFVKLLDPDARLIIGDKSDHGREEVSRSLLEFQRILGIDHLEFRHTHLDIQGDKITIILQVRMKVNGREHHSRLIFVAEKVNGRWVLRSVIFEIH | 2.18 |

| Sequence | protease stability score |
| --- | --- |
| TEDERDVVKLLHLVSKLWLTGDEHILEHLADPSVRSDFDGVRLHGRRLLSYFLSELRIHHVEVRDVRVEYQGDKLIARSDTEVDLEIDGQRHRMDTRMILISRKWDGRWLIESISFEIQ | 2.04 |
| DEDKELAIRMIRLLMHALHTGDEDLLDELLDPNTKVDVDGQDLVGREQFLRDLRHIRIEIKDSHIHDVRVQGDKVRSHSYINGRREYDGVRLETEFRVLFIIRKVNGKWIFKSIHSL | 1.3 |
| DEIRKMVEESFEIILHSILTGDEHIEEFLADPHVRILINGVTFHGREEFHKLIEHYLKHWRIKDSKVDHVHAQGEKIEMRVTIHGTVDGQEQTREVIIIAKKVDGRWSMKHVEVR | 2.08 |
| DEHKKESKETAEIVMELRKTGDWDEFSRLADPNVKIDVDVNGKRINNIGWESFVEFVLKERDEWRLEDYKIRDIRVIDGVAEIDGEITGVFNGQREKREFRIIVVVVNGRLKSVQLKFK | 1.29 |
| DHEDELKMHLFEHLLEVLMTGDEHRKTRLLDPDARSHLDINGQKIDVMGWEEVTKLDRKLHEEIRFHEIHIREWELQGDKIFVVGETRIEINGVEFRTEVRIIVVVVNGRLKALFFHVH | 0.271 |
| DSLEEMTRKWFEKWVRDLKTGDEQSMTELADPHVRFLQGDKEYHGRELFTELESEKRKRFDHLELRLHSMEVQGDKLHIDSRMILKIGDFVLKLNVYLHVLKIDGRWLLEEIRIK | 0.704 |
| SEEEHYRREMIHFSREVWETGDWDSLMNLADPNVRIEAENHDLHGREFFVKLMEEISRKFKNVRIIIRHLHIQGDKVEMHSEIIFNGRSVHVTFFALKVNGRWIFKEMVFI | 0.925 |
| SEEEEEHEELMRLMESTVRTGDFELFEKLADPNVRINIDGKDVHGREEFLEHWVRRWRDLGVNHLRIEHRRVYNGVIIIKVKILVNGREITLHIEARKVDGRWSVHKVEQH | 2.25 |
| DEEEEKAKHVLELWSRAMLTGDEDEYKKLADPHTRLIVDGQTFHGWENFTKSHNQIKNIKIDDVHVENHHIQGNKMFVDLRFEMEFNGRILHKETHLFIEKIDGKWLIRTQEIH | 0.767 |
| SEHDEELRHASEKLWHDILTGDWKSIKELADPNVRVIIWQGEKEINLHGREEVTRVIKEMGFKHTHIEHQSTINGRMIVDNHSNINGKRVHLHFVIEKINGRWFLHEMRIEFE | 1.47 |
| SEEERHSREMMKLYYKFLETGDEEKFLSLADPDVRIVFNGRDYHGWKDMEKLFHRLLKELGVDHFHIEHVRIDIIDGVAFAFFEVSYNIDGKSLHMHYRFYVKKIDGKWHVRWIHLEVK | 1.59 |
| DDEDRKLKHLIELLVHWFLTGDEDALKELADPNTKFDIGDKHYHGMEIVQEIWKRHLEEIRIQHVEIRHVEIQGNKTDITGELHGQIGDKHIRSEVRIHLNIINGRVRSMWFIIH | 2.49 |
| DEDERLLRDHLKLFQDAVRTGDEEVLSELLDPNVRLHIGDKTIHGREIVIDILRTEMRHLGVDYDETHLHHINIQGEWVHLHTELRLKVNGQRITLWTRLYLYKIDGKWIVTQIQLH | 2.3 |
| SEDRKFIKEMFEETFRRWETGDEDHIRRYVDPHTKLRILIDGREHTHHGREEFTKMMIDLSEQLGIKHLHIENLHIQGDKAELRGREEVGDKDEHVTIIAHKVNGQWTIETLHIEVR | -0.376 |
| DEEEKHWTTLIEIHFKDLLTGDEDSNLHLADPDYRLRMHFDGRELIFIGREEIHKFWHETVHKFKNMRIEINDSDIQGDKFDVDIAIRIDGVEIRYRLIIILFNGRTHRQEVHNI | 1.3 |
| DEEEKAVKHAVERFVESTQTGNEHKLNELMDPNVRIDFNGVELIGREWFSKLLSEIRSDRFHIHDIRLQGEKADNDTREKGHVDGRTTEMTVRLIWIKFDGKWRLETVIFQ | 1.01 |
| SEEEELWRLAEETSERIIRTGDFTRLEEMIDPDARMHIDGRTHHGRETISKILLHELTRIKNVKFEIKHKSSQGDWVDIDLILRFDGKTEHIRYYVYKINGQWFLHSIEYH | 1.19 |
| SEEEEESRKMLELFKELLETGDEEDMTKLADPNVRIIYDGKHLHGRHVAHDVWHELSNRVKNAKFHFDVIKIVGEKVILEITIHVDGQDIESSTILDKFNGKWYMEEVFFH | 1.92 |
| HEEERDAEKLIRIWYHYLVTGDEERLLELLDPSTRMDINGVTHHGMEIVRDALHDLLRHLGVKVFRDIHIESVEIQGEKVITRMHVLFEVDGQELRIDSILFSHKINGKWLIEMHSKK | 1.23 |
| DVEQEISKTLVHLWVFALLTGDEHLIRKLADPHVRLDIDGVTIVGMDLVAKRITELRIERFTIEDVKFEIQGDKLISIMDTKVDGRIGDKRIETRVIILLIFEKIDGRWQLSTSSEEKR | 1.16 |
| DEREKLAKKFLELFLHYIETGDEEVLRKLLDPSTRLEVNGRDNHGWKMFIWLLRELRIHRVHMELKVTDIQGDYVRNEGRLRSDVEYGDKRFETEYMVIIFLEKVDGRWHLHSFEVD | 1.56 |
| SQIEEDIRRQLKRFNDALTTGDEDEIMNLFDPDVRWIQGNYEHHGREFYLEMFREWRTHSIRIDIDRMEIQGDKVTLHTRFTVDGEFNGRRITEQYELVFIARKIDGRWVFREVRIK | 2.4 |
| DHVEEDARTRLKLFLTHWLTGDEHSTNELFDPNVRIDVNGKIIVGRHVLSEEWSRLGIKHSILHIDHIHIDEDEIHIDGILRLIFENHVLDLRVNLHAEKYDGRWHSSEVQVK | 1.25 |
| SETEKHLQDIADILVHAEITGDEETLNKMLDPDVRMHNEVNGREYHIHGREEVLKHWREWVTRFKGARIDIEDVHIINGVVHVNMKIIFNGRRIESRLDVEVVNGRVRTIRIHER | 2.15 |
| DELEEETREAIRLMFESVKTGDEDSIKHLADPHVRVLINGRDDHGMKILHHLFSRFKNLTIELKRVHVYGEKAEVHTNWHINGRYYHVIWILIKINGRWFIESIEIH | 1.61 |
